Laboratory results reported in US20040132160A1 (University of Texas, published 2004).

Assays:
[1] = target: T1, full-length MURF-1 with C-terminal myc tag (murine, UniProt Q9ERP3 1-366); test: co-immunoprecipitation of 35S-labeled in vitro translated myc-tagged and Flag-tagged MURF-1 with Flag antibody M2
T1 construct: Expressed in transfected cells (Hela, Cos, 293T and others) or translated in vitro with 35S-methionine; also called myc-tagged MURF-1; myc-tagged MURF; not shown: C-terminal myc/HIS tag of vector pcDNA3.1 myc/HIS (Invitrogen)
T1 sequence: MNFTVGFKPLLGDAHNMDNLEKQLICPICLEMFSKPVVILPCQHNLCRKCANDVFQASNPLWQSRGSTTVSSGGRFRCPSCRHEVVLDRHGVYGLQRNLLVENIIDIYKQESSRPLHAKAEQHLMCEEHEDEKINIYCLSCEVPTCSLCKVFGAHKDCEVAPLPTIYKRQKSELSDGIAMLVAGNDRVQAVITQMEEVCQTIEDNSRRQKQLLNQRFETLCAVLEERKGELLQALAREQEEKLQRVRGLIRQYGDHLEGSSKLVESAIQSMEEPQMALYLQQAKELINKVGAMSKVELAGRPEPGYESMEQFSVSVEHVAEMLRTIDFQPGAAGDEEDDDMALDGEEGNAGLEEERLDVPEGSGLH
Description: (§1) FIGS. 6A-6D—Mapping domains of MURF-1 required for homo-oligomerization. FIG. 6A. Various forms of N-terminal Flag-tagged MURF-1 and full-length C-terminal myc-tagged MURF-1 were in vitro translated in the presence of ³⁵S-methionine and immunoprecipitation performed as described in Material and Methods. The leucine-rich coiled-coil domain mediates homo-oligomerization of MURF-1. FIGS. 6B-D. MURF-1 binds to microtubules in a homo-oligomeric form. Hela Cells were transfected with Flag-tagged full-length MURF alone (FIG. 6B) or in combination with myc-tagged MURF-1 (FIGS. 6C and 6D) and immunofluorescence performed. Flag-tagged MURF-1 forms aggregates in the cytoplasm of the cell. In the presence of myc-tagged MURF-1, the Flag-tagged MURF-1 and myc-tagged MURF-1 are colocalized in filamentous structures in the cell. Identical results were obtained using native MURF-1 lacking an epitope tag.
In vitro transcription/translation was performed as directed by the manufacturer (Promega). Plasmids used were C-terminally myc-tagged full-length MURF-1 and various Flag-tagged deletions of MURF-1. Immunoprecipitations were performed using ³⁵S-methionine-labelled in vitro translation products. Briefly, ³⁵S-methionine-labelled products were incubated with agitation in 1 ml of immunoprecipitation buffer (PBS, 0.5% Triton X-100, 0.25 mM zinc sulphate) at 4° C. for 2 hours. […]

[2] = target: T2, MURF-1 (Muscle RING Finger 1), native protein without epitope tag (murine, UniProt Q9ERP3 1-366); test: immunofluorescence in cotransfected Hela cells, legend of FIGS. 6B-D
T2 construct: 366 amino acid protein, 41 kDa; also called endogenous MURF-1; native MURF-1
T2 sequence: T1 sequence
Description: as §1, with “The” for “FIGS. 6A-6D—Mapping domains of MURF-1 required for homo-oligomerization. FIG. 6A. Various forms of N-terminal Flag-tagged MURF-1 and full-length C-terminal myc-tagged MURF-1 were in vitro translated in the presence of ³⁵S-methionine and immunoprecipitation performed as described in Material and Methods. The”
For immunofluorescence, cells were extracted with 1% Triton X-100 in PBS for 1 minute, washed twice in PBS, and fixed for 15 minutes in 3.7% formalin in PBS. Cells were then washed three times in PBS and blocked in PBS containing 3% Bovine Serum Albumin and 0.1% NP40 for 30 minutes. All antibodies were incubated in fresh block solution for 60 minutes at ambient temperature. Myc-tagged versions of MURF-1 were detected using antibody 9E10 (Santa Cruz) at a dilution of 1:250. Flag-tagged versions of MURF-1 were detected using the M2 Flag antibody at a dilution of 1:500 (Kodak). Microtubules were detected using alpha-tubulin antibody at a dilution of 1:2000 (Sigma). Intermediate filaments were visualized using vimentin antibody at a dilution of 1:500 (Sigma). […]

binding result [1]: binds
binding result [2]: binds
B1: full-length MURF-1 with N-terminal Flag tag (other)
chain: T1 sequence
notes: Translated in vitro with 35S-methionine for immunoprecipitation, or expressed in Hela cells; also called Flag-tagged MURF-1; Flag-MURF-1; not shown: N-terminal Flag tag (vector pECE-Flag, subcloned into pcDNA3.1)
